system: Escherichia coli TOP10; assay: shrunken log2 fold change of peptide-encoding DNA abundance (4.5 h post-induction vs induction); higher = less antimicrobial activity (less host growth inhibition); details: time post-induction: 4.5 h; library: site-saturation at positions 5, 18, 19, 20
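Also: peptides expressed intracellularly from a pBAD plasmid library in pooled LB shake-flask culture, induced with 0.3% L-arabinose, DNA abundance read by NGS, three biological replicates, DESeq2 with apeglm shrinkage.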

Row | Sequence | shrunken log2 fold change
1 | RRIRNRPPRLPRPRPRPSWNPRP | -0.191
2 | RRIRYRPPRLPRPRPRPQESPRP | -0.0191
3 | RRIRPRPPRLPRPRPRPISTPRP | -0.324
4 | RRIRGRPPRLPRPRPRPMQNPRP | 0.873
5 | RRIRERPPRLPRPRPRPSMQPRP | -0.759
6 | RRIRKRPPRLPRPRPRPFHKPRP | -0.00277
7 | RRIRRRPPRLPRPRPRPKCSPRP | 0.504
8 | RRIRERPPRLPRPRPRPVESPRP | -0.0262
9 | RRIRFRPPRLPRPRPRPLKPPRP | -0.178
10 | RRIRNRPPRLPRPRPRPCKCPRP | 0.00489
11 | RRIRSRPPRLPRPRPRPEEIPRP | -0.00908
12 | RRIRGRPPRLPRPRPRPVQQPRP | 0.515
13 | RRIRKRPPRLPRPRPRPLEAPRP | 0.505
14 | RRIRKRPPRLPRPRPRPVDRPRP | 0.248
15 | RRIRRRPPRLPRPRPRPKQLPRP | 0.148
16 | RRIRPRPPRLPRPRPRPTVVPRP | 0.0581
17 | RRIRDRPPRLPRPRPRPFQQPRP | -0.0599
18 | RRIRCRPPRLPRPRPRPWCNPRP | -0.412
19 | RRIRNRPPRLPRPRPRPWTAPRP | -0.0401
20 | RRIRARPPRLPRPRPRPNMEPRP | -0.0484
21 | RRIRPRPPRLPRPRPRPYNEPRP | -0.458
22 | RRIRKRPPRLPRPRPRPAEKPRP | 0.477
23 | RRIRERPPRLPRPRPRPYMTPRP | -0.124
24 | RRIRPRPPRLPRPRPRPENEPRP | 0.0949
25 | RRIRGRPPRLPRPRPRPLRIPRP | 0.175

Row | Sequence | shrunken log2 fold change
26 | RRIRWRPPRLPRPRPRPCCNPRP | -0.0508
27 | RRIRQRPPRLPRPRPRPKINPRP | -0.354
28 | RRIRMRPPRLPRPRPRPLAMPRP | 0.548
29 | RRIRSRPPRLPRPRPRPGAHPRP | 0.0286
30 | RRIRKRPPRLPRPRPRPVWGPRP | 3.44
31 | RRIRKRPPRLPRPRPRPGGGPRP | 0.976
32 | RRIRVRPPRLPRPRPRPLCNPRP | -0.139
33 | RRIRMRPPRLPRPRPRPTKNPRP | 1.35
34 | RRIRPRPPRLPRPRPRPQCCPRP | 0.0723
35 | RRIRFRPPRLPRPRPRPVQIPRP | -0.0152
36 | RRIRRRPPRLPRPRPRPVFMPRP | 0.251
37 | RRIRHRPPRLPRPRPRPDESPRP | 0.0491
38 | RRIRMRPPRLPRPRPRPIVKPRP | 0.0312
39 | RRIRIRPPRLPRPRPRPIIYPRP | -0.396
40 | RRIRRRPPRLPRPRPRPPLAPRP | 1.18
41 | RRIRNRPPRLPRPRPRPKPGPRP | 0.235
42 | RRIRDRPPRLPRPRPRPNWGPRP | 0.061
43 | RRIRIRPPRLPRPRPRPCQHPRP | -0.183
44 | RRIRSRPPRLPRPRPRPMHNPRP | -0.179
45 | RRIRLRPPRLPRPRPRPNQFPRP | 0.0261
46 | RRIRQRPPRLPRPRPRPTQNPRP | 0.627
47 | RRIRRRPPRLPRPRPRPCPFPRP | 0.0522
48 | RRIRARPPRLPRPRPRPLFDPRP | 0.28
49 | RRIRTRPPRLPRPRPRPLWRPRP | 0.00366
50 | RRIRNRPPRLPRPRPRPKPKPRP | 0.211

Row | Sequence | shrunken log2 fold change
51 | RRIRIRPPRLPRPRPRPGLNPRP | 1
52 | RRIRGRPPRLPRPRPRPICCPRP | 0.8
53 | RRIRKRPPRLPRPRPRPLQTPRP | 0.182
54 | RRIRYRPPRLPRPRPRPLVEPRP | -0.234
55 | RRIRGRPPRLPRPRPRPYNRPRP | 0.00858
56 | RRIRWRPPRLPRPRPRPMDAPRP | 0.051
57 | RRIRIRPPRLPRPRPRPSPKPRP | -0.178
58 | RRIRGRPPRLPRPRPRPVDKPRP | 0.319
59 | RRIRARPPRLPRPRPRPGEAPRP | 0.942
60 | RRIRYRPPRLPRPRPRPILFPRP | -0.945
61 | RRIRWRPPRLPRPRPRPQMRPRP | 0.147
62 | RRIRARPPRLPRPRPRPEDVPRP | 0.931
63 | RRIRKRPPRLPRPRPRPIMCPRP | -0.0176
64 | RRIRWRPPRLPRPRPRPPMGPRP | 0.362
65 | RRIRTRPPRLPRPRPRPFQYPRP | -0.0476
66 | RRIRYRPPRLPRPRPRPELRPRP | 0.363
67 | RRIRERPPRLPRPRPRPHMKPRP | -0.286
68 | RRIRDRPPRLPRPRPRPEAQPRP | 1.66
69 | RRIRIRPPRLPRPRPRPPLSPRP | -0.128
70 | RRIRCRPPRLPRPRPRPIRMPRP | -0.339
71 | RRIRARPPRLPRPRPRPDHAPRP | -0.0131
72 | RRIRSRPPRLPRPRPRPYYFPRP | -0.664
73 | RRIRPRPPRLPRPRPRPIESPRP | -0.252
74 | RRIRGRPPRLPRPRPRPHHSPRP | -0.196
75 | RRIRLRPPRLPRPRPRPWDSPRP | -0.145

Reference: the supplement of paper PMC9112550, “Optimization of the antimicrobial peptide Bac7 by deep mutational scanning” (BMC Biology, 2022)
